# ± gives the uncertainty stated by the source.
# Test: amyloid nucleation score (Sup35N fusion, yeast selection) (log enrichment); library NNK3; higher = more nucleation; inactive = no reads after selection
# How it was run: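 Growth for 7 days at 30°C on medium lacking adenine and uracil followed a 24-hour induction with 100 μM copper sulfate of psi-negative yeast expressing peptides of 20 random codons fused to Sup35N. Input and output plasmid inserts were sequenced with Illumina, and sequences with under 100 input reads were excluded. Nucleation score is the DiMSum log enrichment of output over input reads, centred on the mode score of non-aggregating sequences.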
row,Substance,amyloid nucleation score
1,KVICVLFKIMKLF,0.442 ± 0.18
2,EMLFPSRICLCIHDVILPRV,inactive
3,YIAGFQFCSIIFQRRTVQLL,inactive
4,QRKVSWHAGYSA,inactive
5,LGKHRANHCMAGQDVAYKWV,-0.831 ± 1.1
6,WSILL,inactive
7,DYVRKWS,inactive
8,RMDNCSGDI,inactive
9,CIAMKMWKNIRRWWSGRVAG,inactive
10,PATVNRSWNFGIRFNGARNN,-0.404 ± 0.8
11,WLWTLALNFTYKYFMCGKYK,inactive
12,LTCWSVVMFTCHP,inactive
13,CVIPRQIYWWCYRSTGRLIL,inactive
14,LIGLRCMPLRV,inactive
15,YSWDILSLLRGKETQACICY,inactive
16,LIINIHDRLLVRVPLWDWLR,inactive
17,NVYMHAMCRWDVQGTAR,inactive
18,LRAEVLSSYVTWVHAEGPHC,inactive
19,FNQAHSVTTDREAYRGRCQG,inactive
20,CFVVNCHYFDFMDV,2.51 ± 0.06
21,PIYMYLFSTHVSNQFVKGAF,3.08 ± 0.06
22,LFSTCSSWTQFLLRPAVSAV,inactive
23,CDTFVVNMSQFLSISTMAER,0.66 ± 0.17
24,NKVVAKHGFGVRSFKIWGLD,inactive

row,Substance,amyloid nucleation score
1,ANTFVSSWFVTTNRQKTERG,inactive
2,FTCFNGQLVMA,inactive
3,TICLSRVTYVSRQEWGSASV,-0.023 ± 1
4,YLVTWWMLSHKLTHMCFSGR,-0.024 ± 0.69
5,LMNYRMGWWFVCENYNEML,0.571 ± 0.17
6,IIRVLNWYHYIEAKTLNSLR,inactive
7,GHLMGETTY,inactive
8,RVPYFYFPPLR,inactive
9,FQKLEVNKLGIIWNHVLTRK,inactive
10,VNLEYYV,inactive
11,FSSMQDWSFGIYLNSEAPPT,inactive
12,MVCIDPFNENLVRVRMTVIG,inactive
13,ILFSISSVMF,0.605 ± 0.19
14,LLVLVV,inactive
15,AIFHGIRCSFMSSSLYTNDG,inactive
16,RFTDRCTLHFQMFVVLRAVI,inactive
17,LIDMFIFNARVSNGDFYCPN,0.718 ± 0.13
18,SFGFALLGVVMRITAVRYPY,inactive
19,QRLCCPRNL,inactive
20,SYHYFGRYCGFR,inactive
21,WVCLWVIVLYHIPVLNKLLS,inactive
22,RYRLKM,inactive
23,IVFEMLPWPVG,-0.435 ± 1.9
24,VFAISV,inactive

row,Substance,amyloid nucleation score
1,PERTPFGSNYIYFVKRTRLL,inactive
2,WYGVSACYGWHNVAHSSRSL,1.22 ± 0.18
3,FNLGRVMFLRSLRWCQGLLV,inactive
4,FISGVYMKCIGCSS,inactive
5,PDSKWVFRNAALMTETCIGR,inactive
6,RCSWKTLPMYLMYCCTACHS,inactive
7,SRGLYKYLGLRFFMYGRVLR,inactive
8,KLPGLFQLCDMCVIGLKNAY,0.513 ± 0.17
9,LENSNFWSCSWISRYIYIRN,inactive
10,FAGCLGHPLERYVHLAWV,inactive
11,IQWMLCAKANLIEYKGVFFI,inactive
12,LFFKP,inactive
13,RYADHAYLVPKFGQTEQENV,inactive
14,FVYTDVCSQFFRMGHFDTSY,-0.21 ± 0.7
15,SPLSRTFTPTYAGDMLLNSS,inactive
16,LGIRWLLACWVVENLDFPNI,-0.719 ± 1
17,LVIIQCSNRGVSKYRLVGTD,1.82 ± 0.071
18,RTFRSFSQVYRPILRRGHSG,inactive
19,GRSSRCWGGMCRGGNLCEEF,inactive
20,RLFLINSGASDPNSQMSNLR,inactive
21,CRCGSKNTTVRTLLNRGYSE,inactive
22,NTNVVSDYIHHAF,inactive
23,INFHMS,inactive
24,KAAEDMRGFHCGARKSIRVD,inactive

row,Substance,amyloid nucleation score
1,VCTYNLAFGYFGVVWLTFVV,-0.519 ± 0.82
2,LSFPYMMTIFCATRFTDPLM,inactive
3,VCGDRKIFNHADVVYRMGRS,inactive
4,LNGASADRRDWAEWLKADHC,inactive
5,SALEKVDGATSIEVLPTNRR,inactive
6,NRSRNMESVRDSLLSVVNRE,inactive
7,CRRIYPFRP,-0.064 ± 0.66
8,YAGFCPRGRSPKRG,inactive
9,CQSKLKLSMLCRWFRCTIGK,inactive
10,LNGIEGSGY,inactive
11,QQSWFTIYDVILYR,inactive
12,WMFVRGDAGLRFVGG,1.05 ± 0.21
13,HEISSICTRFWANSLIRMSC,inactive
14,ILRYVLAHSVLKTCLMQGLA,inactive
15,HFFLLMLSYSYYDCVFRYKC,inactive
16,WMNGISKL,inactive
17,VCSYSMISHSAKWFVLILEW,inactive
18,DYKKVGDSLFTVFVFRFINV,inactive
19,EGDYECGNTWQNGGSTSEDP,inactive
20,YRILRL,inactive
21,TVTHLFGHRVGMSLVFNSTY,inactive
22,YRFLMLITYYFCIV,2.11 ± 0.071
23,VWRHQDLGARAKAASHG,inactive
24,IHFLNWSARM,inactive

row,Substance,amyloid nucleation score
1,RMIRNIFGSHAVLCFGCKC,2.9 ± 0.068
2,MWVGDKPSGSRRLVLGVRVT,-0.258 ± 0.91
3,SRQGVNQKRTVCWS,inactive
4,NYFGLWGCHTCITCYPVTLV,1.29 ± 0.13
5,HSYFDFYSYDSYNVRHRSVK,inactive
6,GDMFDWFSGELVFRMRNILC,-0.917 ± 1.1
7,LFDCFVILKDFACEFKNIPD,inactive
8,HFAYRFCYLANRRRDVYRSA,inactive
9,LFRLFVSEARTRLNCRTCNF,-0.285 ± 0.64
10,SQRYLNLVPKYLSRLVMCGI,inactive
11,DECYNVLRSVVYGMTSSTGW,inactive
12,FILRLVEVSNFCTRYRNAYS,inactive
13,PLAGLELCMRRRWVEE,inactive
14,NSLVGLVCKTGSSFTRNKVV,-0.104 ± 0.75
15,KTHCCC,inactive
16,EIKSDICFGFVYTTS,inactive
17,FYMASMCCWF,inactive
18,SLFFLSMFVHLMDEMWDWES,inactive
19,FYMISPTISFLLFGLLANI,inactive
20,RCYYMAMVMYTLLPLLRAET,-0.074 ± 0.32
21,EKVSYFSNNVVLIVVINRVC,inactive

# Source: the supplement of paper PMC12042874
